The source of these data is patent publication US20070185311A1 (EPIX MEDICAL INC A DELAWARE, published 2007).

The target of test [1] is DD(E) fragment of fibrin. The test is described as follows: affinity of fluorophore-labelled peptide; target taken as fibrin DD(E) fragment.
Test [2] addresses DD(E) fragment of fibrin. The test is described as follows: affinity of optical contrast agent to fibrin DD(E) fragment.
Test [3] concerns the target T1, DD(E) fragment of fibrin.
T1 chain 1: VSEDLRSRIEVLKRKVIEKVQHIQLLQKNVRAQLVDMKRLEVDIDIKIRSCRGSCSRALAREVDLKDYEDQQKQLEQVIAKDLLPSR
T1 chain 2: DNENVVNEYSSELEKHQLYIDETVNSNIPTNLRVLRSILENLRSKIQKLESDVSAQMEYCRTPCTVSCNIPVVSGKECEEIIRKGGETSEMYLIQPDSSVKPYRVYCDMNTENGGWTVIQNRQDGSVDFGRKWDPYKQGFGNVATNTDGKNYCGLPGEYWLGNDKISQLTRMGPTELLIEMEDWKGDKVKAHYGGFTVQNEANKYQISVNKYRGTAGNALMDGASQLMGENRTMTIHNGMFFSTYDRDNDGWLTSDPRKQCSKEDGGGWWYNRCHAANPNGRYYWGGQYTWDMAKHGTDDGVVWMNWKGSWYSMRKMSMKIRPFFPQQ
T1 chain 3: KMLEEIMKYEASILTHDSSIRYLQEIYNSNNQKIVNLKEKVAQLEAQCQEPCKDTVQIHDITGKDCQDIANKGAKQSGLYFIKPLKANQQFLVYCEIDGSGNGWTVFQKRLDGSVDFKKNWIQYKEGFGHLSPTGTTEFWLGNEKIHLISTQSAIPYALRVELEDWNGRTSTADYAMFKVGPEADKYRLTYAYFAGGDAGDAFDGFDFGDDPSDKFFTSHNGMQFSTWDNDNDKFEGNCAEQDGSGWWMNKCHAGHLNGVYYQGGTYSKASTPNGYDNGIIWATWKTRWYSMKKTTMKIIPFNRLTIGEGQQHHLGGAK
T1 chain 4: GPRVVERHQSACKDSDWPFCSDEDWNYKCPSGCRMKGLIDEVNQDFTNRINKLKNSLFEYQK
T1 chain 5: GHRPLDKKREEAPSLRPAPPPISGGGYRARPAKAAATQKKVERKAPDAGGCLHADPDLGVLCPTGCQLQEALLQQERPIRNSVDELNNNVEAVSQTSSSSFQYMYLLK
T1 chain 6: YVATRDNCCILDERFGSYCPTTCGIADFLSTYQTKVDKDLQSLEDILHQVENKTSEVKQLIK
The test is described as above.

Test [4] concerns the target T1, DD(E) fragment of fibrin. The test is described as follows: affinity to DD(E) fragment of fibrin.
Test [5] has as its target fibrin. The test is described as follows: Fibrin Affinity; method not stated.
Test [6] deals with DD(E) fragment of fibrin. The test is described as follows: affinity of the unlabelled peptide; target taken as fibrin DD(E) fragment.
The target of test [7] is DD(E) fragment of fibrin. The test is described as follows: affinity to soluble fibrin DD(E) fragment.
For test [8], the target named is T1, DD(E) fragment of fibrin. The test is described as follows: affinity to DD(E) fragment of fibrin.

Starred links: 1 amine or outer side, 2 acyl side, 3 side chain; linkers in the order of their positions; H or OH if unused. Positions of bridges follow the written chain, without caps; N, C: chain ends. Non-standard residues stand in square brackets, D forms with d. No end group written: not given here. 4‑methoxycoumarin = 4-Methoxycoumarin, an N-terminal optical probe label; Phe(4-OMe) = COc1ccc(C[C@H](N[*:1])C(=O)[*:2])cc1; Ser(Bzl) = O=C([C@H](COCc1ccccc1)N[*:1])[*:2]; Tyr(3-Cl) = N[C@@H](Cc1ccc(O)c(Cl)c1)C(=O)O; Bip = N[C@@H](Cc1ccc(-c2ccccc2)cc1)C(=O)O; Tyr(3-I) = N[C@@H](Cc1ccc(O)c(I)c1)C(=O)O; 2Nal = N[C@@H](Cc1ccc2ccccc2c1)C(=O)O; Hyp = O=C(O)[C@@H]1C[C@@H](O)CN1; Cha = N[C@@H](CC1CCCCC1)C(=O)O; Ahx = NCCCCCC(=O)O; βAla = NCCC(=O)O

The Kd is the concentration at which binding is half-saturated. For the molecule “Structure J: Fluor-Q-W-E-C-P-Y-G-L-C-W-I-Q (peptide)”, the Kd in test [1] worked out at 60 nM; in test [2], 55 nM.

B1: Structure E: Fluor-Ahx-G-G-F-H-C-Hyp-Y(3-I)-D-L-C-H-I (peptide)
peptide: fluorescein-[Ahx]GGFHC[Hyp][Tyr(3-I)]DLCHI
modifications: disulfide 6-11 (inferred)
In the case of B1, binding in test [3] was characterised by a dissociation constant (Kd) of 90 nM.

B2: F-H-C-Hyp-Y(3-Cl)-(2-Nal)-L-C-H-I-L (peptide)
peptide: FHC[Hyp][Tyr(3-Cl)][2Nal]LCHIL
modifications: disulfide 3-8 (inferred)
As for B2, the Kd in test [4] was ≤ 500 nM.

B3: … (peptide)
peptide: QWECPYGLCWIQ
For orientation: Ki means a measure of affinity in units of concentration, obtained from inhibition or displacement. For B3, the Ki in test [5] was 4700 nM. In test [6], the Kd is 3000 nM.

B4: Structure H: Fluor-K-W-F-H-C-Hyp-Y(3-I)-D-L-C-H-I (peptide)
peptide: fluorescein-KWFHC[Hyp][Tyr(3-I)]DLCHI
modifications: disulfide 5-10 (inferred)
Consider B4, for which binding in test [3] was put at a Kd of 119 nM.

B5: W-E-C-Hyp-Y(3-Cl)-G-L-C-H-I-Q (peptide)
peptide: WEC[Hyp][Tyr(3-Cl)]GLCHIQ
modifications: disulfide 3-8 (inferred)
Turning to B5, the Kd in test [4] is ≤ 200 nM.

B6: Structure D: Fluor-Ahx-W-F-H-C-Hyp-Y(3-I)-D-L-C-H-I (peptide)
peptide: fluorescein-[Ahx]WFHC[Hyp][Tyr(3-I)]DLCHI
modifications: disulfide 5-10 (inferred)
Take B6: the affinity in test [3], expressed as Kd, was 61 nM.

B7: H-E-C-Hyp-Y(3-Cl)-G-L-C-H-I-Q (peptide)
peptide: HEC[Hyp][Tyr(3-Cl)]GLCHIQ
modifications: disulfide 3-8 (inferred)
In the case of B7, in test [4], the Kd was ≤ 400 nM.

B8: Structure K: Fluor-W-F-H-C-P-Y-D-L-C-H-I-L (peptide)
peptide: fluorescein-WFHCPYDLCHIL
modifications: disulfide 4-9 (inferred)
For B8, the Kd in test [3] worked out at 60 nM.

B9: F-H-C-Hyp-Y(3-Cl)-G-L-C-H-I-L (peptide)
peptide: FHC[Hyp][Tyr(3-Cl)]GLCHIL
modifications: disulfide 3-8 (inferred)
For the molecule B9, the Kd in test [4] is ≤ 400 nM.

B10: Compound 32 (peptide)
peptide: LPCDYYGTCXD
modifications: not fully specified; Bip at 10; cyclized with thallium trifluoroacetate; C-terminus as -CO-NHCH2C6H4CH2NH2; Synthon #2 (bb(CO)DTPA chelates, Gd) coupled to the N- and C-terminal amines
In test [7], B10 returned a Kd of 4700 nM.

B11: L-P-C-D-Y-Y-G-T-C-L-D (peptide)
peptide: LPCDYYGTCLD
modifications: not fully specified; cysteine pairing not given here
Turning to B11, in test [8], the Kd is ≤ 10000 nM.

B12: F(4-OMe)-W-C-Hyp-Y(3-I)-D-L-C-H-I (peptide)
peptide: [Phe(4-OMe)]WC[Hyp][Tyr(3-I)]DLCHI
modifications: disulfide 3-8 (inferred)
Regarding B12, the Kd in test [4] is ≤ 500 nM.

B13: S(Bzl)-H-C-P-Y-D-L-C-H-I-L (peptide)
peptide: [Ser(Bzl)]HCPYDLCHIL
modifications: disulfide 3-8 (inferred)
As to B13, the Kd in test [4] is ≤ 400 nM.

B14: H-(D-E)-C-Hyp-Y(3-Cl)-G-L-C-W-I-Q (peptide)
peptide: H[dE]C[Hyp][Tyr(3-Cl)]GLCWIQ
modifications: disulfide 3-8 (inferred)
For B14, the Kd in test [4] was ≤ 200 nM.

B15: Structure A: Fluor-beta-A-F-H-C-Hyp-Y(3-I)-D-L-C-H-I (peptide)
peptide: fluorescein-[βAla]FHC[Hyp][Tyr(3-I)]DLCHI
modifications: disulfide 4-9 (inferred)
In test [2], B15 registered a Kd of 136 nM.

B16: Compound L: tetramethylrhodamine derivative of … (peptide)
peptide: tetramethylrhodamine-QWECPYGLCWIQ
modifications: cysteine pairing not given here
Regarding B16, the Kd in test [1] was 2000 nM.

B17: W-E-C-Hyp-Y(3-Cl)-G-L-C-F-I-Q (peptide)
peptide: WEC[Hyp][Tyr(3-Cl)]GLCFIQ
modifications: disulfide 3-8 (inferred)
On to B17, for which, in test [4], the Kd was ≤ 200 nM.

B18: W-E-C-Hyp-Y(3-Cl)-G-L-C-Y-I-Q (peptide)
peptide: WEC[Hyp][Tyr(3-Cl)]GLCYIQ
modifications: disulfide 3-8 (inferred)
Take B18: the Kd in test [4] is ≤ 300 nM.

B19: Structure B: Fluor-Ahx-F-H-C-Hyp-Y(3-I)-D-L-C-H-I (peptide)
peptide: fluorescein-[Ahx]FHC[Hyp][Tyr(3-I)]DLCHI
modifications: disulfide 4-9 (inferred)
In test [2], B19 had a Kd of 99 nM.

B20: Structure F: Fluor-K-F-H-C-Hyp-Y(3-I)-D-L-C-H-I (peptide)
peptide: fluorescein-KFHC[Hyp][Tyr(3-I)]DLCHI
modifications: disulfide 4-9 (inferred)
On to B20, for which the affinity in test [3], expressed as Kd, was 212 nM.

B21: F-H-C-Hyp-Y(3-Cl)-F-L-C-H-I-L (peptide)
peptide: FHC[Hyp][Tyr(3-Cl)]FLCHIL
modifications: disulfide 3-8 (inferred)
For B21, the Kd in test [4] was ≤ 500 nM.

B22: Cha-P-C-D-Y-Y-G-T-C-Bip-D (peptide)
peptide: [Cha]PCDYYGTC[Bip]D
modifications: cysteine pairing not given here
B22: the Kd in test [8] is ≤ 10000 nM.

B23: T-(D-E)-C-Hyp-Y(3-Cl)-G-L-C-W-I-Q (peptide)
peptide: T[dE]C[Hyp][Tyr(3-Cl)]GLCWIQ
modifications: disulfide 3-8 (inferred)
Take B23: the Kd in test [4] was ≤ 200 nM.

B24: Structure C: Fluor-Ahx-G-F-H-C-Hyp-Y(3-I)-D-L-C-H-I (peptide)
peptide: fluorescein-[Ahx]GFHC[Hyp][Tyr(3-I)]DLCHI
modifications: disulfide 5-10 (inferred)
On to B24, for which the Kd in test [3] was 97 nM.

B25: Compound N: 4-methoxycoumarin derivative of … (peptide)
peptide: {4‑methoxycoumarin}-QWECPYGLCWIQ
modifications: cysteine pairing not given here
In test [1], B25 showed a Kd of 200 nM.

B26: S-(D-E)-C-Hyp-Y(3-Cl)-G-L-C-W-I-Q (peptide)
peptide: S[dE]C[Hyp][Tyr(3-Cl)]GLCWIQ
modifications: disulfide 3-8 (inferred)
For B26, in test [4], the Kd was ≤ 200 nM.

B27: Y-E-C-Hyp-Y(3-Cl)-G-L-C-Y-I-Q (peptide)
peptide: YEC[Hyp][Tyr(3-Cl)]GLCYIQ
modifications: disulfide 3-8 (inferred)
As to B27, the Kd in test [4] is ≤ 200 nM.
